{
  "source": "patent US20090004190A1",
  "about": "“Rage Fusion Proteins And Methods Of Use” (priority 2006, published 2009)",
  "key": {"[1]": {"system": "allogeneic rejection of transplanted islet cells", "assay": "Allogeneic islet transplantation (BALB/c islets in streptozotocin-diabetic B6 mice)", "format": "in vivo, mouse", "conditions": "for day of graft loss, each animal: blood glucose exceeded 250 mg/dl; for day of graft loss, Mean: n 8", "procedure": "C57BL/6J (6-8 week old) (B6) mice were made diabetic by a single intravenous injection of streptozotocin (STZ) (Sigma Chemical Co., St. Louis, Mo.) at 200 mg/kg. BALB/cJ (6-8 week old) (BALB) mice served as donors for islet transplantation, thus providing an allo-mismatch for islet transplants.\nMice (BALB/c) were anesthetized with ketamine HCl/xylazine HCl solution (Sigma, St. Louis Mo.). After intraductal injection of 3 ml of cold Hank's balanced salt solution (HBSS, Gibco, Grand Island N.Y.) containing 1.5 mg/ml of collagenase P (Roche Diagnostics, Branchburg, N.J.), pancreata were surgically procured and digested at 37° C. for 20 mins. Islets were washed with HBSS and purified by discontinuous gradient centrifugation using Polysucrose 400 (Cellgro, Herndon Va.) having four different densities (26%, 23%, 20%, and 11%). The tissue fragments at the interface of the 20% and 23% layers were collected, washed and resuspended in HBSS. Individual islets, free of attached acinar, vascular and ductal tissues were handpicked under an inverted microscope, yielding highly purified islets for transplantation.\nStreptozotocin-induced diabetic C57BL/6 (B6) mice received islet grafts within 2 days of the diagnosis of diabetes. BALB/cJ (6-8 week old) (BALB) mice served as donors for allogeneic islet transplantation. For transplantation, 500-600 freshly isolated islets (i.e., approximately 550 islet equivalents) from donor mice were picked up with an infusion set and transplanted into the subcapular space of the right kidney of a recipient.\nTest compounds were administered as soon as the islets were transplanted; administration continued for about 60 days, depending upon how the control animal was faring.\nIslet graft function was monitored by serial blood glucose measurements daily for the first 2 weeks after islet transplantation, followed by every other day thereafter. Reversal of diabetes was defined as blood a glucose level of less than 200 mg/dl on two consecutive measurements. Graft loss was determined when blood glucose exceeded 250 mg/dl on two consecutive measurements."}, "[2]": {"system": "Zucker diabetic rats, restenosis following vascular injury", "assay": "Diabetic rat model of restenosis (balloon injury of left common carotid artery)", "format": "in vivo", "conditions": "for Luminal area / Medial area: IP, 21 days", "procedure": "In these experiments, balloon injury of left common carotid artery was performed in Zucker diabetic and nondiabetic rats using standard procedure. […] A maintenance dose was delivered every other day until day 7 after injury (i.e., at day 1, 3, 5 and 7 after injury). The maintenance dose was high=1 mg/animal for one group, or low=0.3 mg/animal for the second group. To measure vascular smooth muscle cell (VSMC) proliferation, animals were sacrificed at 4 days and 21 days after injury.\nFor the measurement of cell proliferation, 4 day animals received intraperitoneal injection of bromodeoxyuridine (BrDdU) 50 mg/kg at 18, 12, and 2 hours before euthanasia. After sacrifice, the entire left and right carotid arteries were harvested. Specimens were stored in Histochoice for at least 24 hours before embedding. Assessment of VSMC proliferation was performed using mouse anti-BrdU monoclonal antibody. A fluorescence labeled goat anti-mouse secondary antibody was applied. The number of BrdU-positive nuclei per section were counted by two observers blinded to the treatment regimens.\nThe remaining rats were sacrificed at 21 days for morphometric analysis. Morphometric analyses were performed by an observer blinded to the study groups, using computerized digital microscopic planimetry software Image-Pro Plus on serial sections, ([…]) carotid arteries stained by Van Gieson staining. All data were expressed as mean±SD. Statistical analysis was performed with use of SPSS software. Continuous variables were compared using unpaired t tests. A values of P≦0.05 was considered to be statistically significant."}, "[3]": {"conditions": "300 ug + 30 ug qod ip (Group 3)"}, "[4]": {"conditions": "300 ug LD + 100 ug qod ip (Group 1)"}, "[5]": {"conditions": "High dose 1.0 mg/animal qod × 4, loading dose 3 mg/animal"}, "[6]": {"conditions": "Low dose 0.3 mg/animal qod × 4, loading dose 3 mg/animal"}},
  "note": "Several values for one entry are separate records, joined by “and”; a condition that tells them apart may be missing. Equal entries are not always repeated.",
  "data": [
    {"molecule": "TTP-4000: four domain RAGE fusion protein: human RAGE V and C1 domains with interdomain linkers (to residue 251) fused to human IgG1 CH2 and CH3; SEQ ID NO: 34/56 (protein, listed as Homo sapiens) QNITARIGEPLVLKCKGAPKKPPQRLEWKLNTGRTEAWKVLSPQGGGPWDSVARVLPNGSLFLPAVGIQDEGIFRCQAMNRNGKETKSNYRVRVYQIPGKPEIVDSASELTAGVPNKVGTCVSEGSYPAGTLSWHLDGKPLVPNEKGVSVKEQTRRHPETGLFTLQSELMVTPARGGDPRPTFSCSFSPGLPRHRALRTAPIQPRVWEPVPLEEVQLVVEPEGGAVAPPSVFLFPPKPKDTLMISRTPEVTCVVVDVSHEDPEVKFNWYVDGVEVHNAKTKPREEQYNSTYRVVSVLTVLHQDWLNGKEYKCKVSNKALPAPIEKTISKAKGQPREPQVYTLPPSRDELTKNQVSLTCLVKGFYPSDIAVEWESNGQPENNYKTTPPVLDSDGSFFLYSKLTVDKSRWQQGNVFSCSVMHEALHNHYTQKSLSLSPGK", "values": [
      {"measurement": "day of graft loss, each animal", "setting": "[1]; [3]", "result": "13 day and 14 day and 12 day (2×) and 11 day (2×) and 8 day (2×)"},
      {"measurement": "day of graft loss, Mean", "setting": "[1]; [3]", "result": 11.125, "unit": "days"},
      {"measurement": "day of graft loss, each animal", "setting": "[1]; [4]", "result": "14 day (2×) and 16 day (2×) and 13 day (2×) and 12 day and 15 day"},
      {"measurement": "day of graft loss, Mean", "setting": "[1]; [4]", "result": 14.125, "unit": "days"},
      {"measurement": "vascular smooth muscle cell proliferation (BrdU-positive nuclei)", "setting": "[2]; 4 days after injury, dose-responsive, FIG. 13B", "result": "significantly reduced"},
      {"measurement": "Luminal area", "setting": "[2]; [5]", "result": "0.16 ± 0.02", "unit": "mm^2"},
      {"measurement": "Medial area", "setting": "[2]; [5]", "result": "0.11 ± 0.01", "unit": "mm^2"},
      {"measurement": "Luminal area", "setting": "[2]; [6]", "result": "0.18 ± 0.04", "unit": "mm^2"},
      {"measurement": "Medial area", "setting": "[2]; [6]", "result": "0.11 ± 0.02", "unit": "mm^2"}
    ]}
  ]
}
